From article PMC10303025 come the findings set out here.

The data set concerns the target T1, M2-1 transcription antiterminator (Human respiratory syncytial virus, UniProt P04545 1-194).
T1 sequence: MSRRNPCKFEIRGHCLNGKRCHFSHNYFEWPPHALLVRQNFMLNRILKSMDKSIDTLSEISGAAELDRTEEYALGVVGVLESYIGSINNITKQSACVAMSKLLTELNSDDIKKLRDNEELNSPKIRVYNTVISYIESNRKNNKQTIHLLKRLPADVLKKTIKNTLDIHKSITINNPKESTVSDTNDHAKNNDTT
Description: not stated (EMSA and fluorescence polarization titrations mentioned); Kd may derive from earlier work [37]. As to conditions: protein: recombinant; chain copies: 4; label: 5' 6-FAM; single strand. (In general: Mobility shift assays separate free from complexed probe on a gel.)

In general, Kd refers to a measure of binding affinity in units of concentration. Regarding AUAAAGUAGUUAAUUAAAAA (ssRNA) [RNARSV20 (SH gene end 20-mer)], the Kd came to 20 nM.
